Experimental data: patent US20240376163A1 (published 2024)
No end group written: not given here. *: point of attachment. Biotin = O=C1N[C@H]2[C@H](CS[C@H]2CCCCC(=O)*)N1

Biological target: His-tagged CNA
Assay: SPR

- Kd: 512 nM
Binder: Biotin-AAAMAGFPPEITVTPPTP [CABIN1-L-1]
